Data on four molecules can be found in patent publication US20240024479A1, “NK CELLS OR T CELLS EXPRESSING CHIMERIC HEMATOPOIETIC GROWTH FACTOR RECEPTORS AND METHODS OF USE” (The United States of America, as represented by the …, priority 2020, published 2024).

Data set [1] addresses human thrombopoietin receptor (c-MPL) expressed on transduced NK or T cells (human) (UniProt P40238). Briefly: cell-based or functional assay.
The subject of data set [2] is NK cells transduced to express MPL or MPL-IL2RB chimeric receptors. Briefly: Phospho-STAT5 and phospho-S6 signaling in transduced NK cells. The data set is classed as cell-based, human.
Data set [3] deals with c-MPL transduced NK cells. The experiment in a line: Proliferation of c-MPL-expressing human NK cells with thrombopoietin mimetics. The data set is classed as cell-based. As to conditions: 4-5 days culture. The procedure:
FIGS. 16A-16C show proliferation of human NK cells transduced to express GFP and c-MPL cultured for 4-5 days with the indicated concentrations of thrombopoietin (FIG. 16A), romiplostim (FIG. 16B), or eltrombopag (FIG. 16C). […] Mean and SEM of results from 3 blood donors are shown.
NK cells from PBMC from three blood donors were stimulated and transduced to express GFP and c-MPL, then were cultured for 4-5 days with thrombopoietin, romiplostim, or eltrombopag.

A further data set concerns Human NK cells. The experiment in a line: Matrix of IL-2 and eltrombopag concentrations, NK cell numbers after 6 days. As to conditions: for proliferation in the presence of eltrombopag at high IL-2 concentrations compared with IL-2 alone: 6 days. The data set is classed as cell-based. The procedure: (§1) In vitro cell culture experiments with human NK cells expressing MPL-IL2RB: Approximately 2-4 days after transduction, NK cells were placed in culture with varied concentrations of eltrombopag (Selleckchem, TX, USA) or romiplostim (Amgen, CA, USA); where concentrations are not indicated, 0.33 ug/mL eltrombopag or 1.5 ng/mL romiplostim were used. Medium and drugs were refreshed by addition of new medium or by changing half the culture volumes every 2-4 days. Numbers of GFP^+ cells were quantitated after 4-6 days (or indicated durations) using a BD Fortessa flow cytometer (BD Biosciences, NJ, USA) and compared with initial numbers to determine the fold expansion.

Data set [4] deals with primary human NK cells. The experiment in a line: Chimeric MPL-IL2RB constructs (lentiviral) in primary human NK cells, cell numbers with MPL ligands. The class given is cell-based. As to conditions: after 4 days; medium lacking cytokines; lentiviral vectors. From the text: (§2) Lentiviral and retroviral vectors expressing MPL-IL2RB and other chimeric MPL receptors: Lentiviral vectors were created by Vectorbuilder (IL, USA) by insertion of DNA sequences encoding EGFP and chimeric molecules including extracellular, transmembrane, and in some cases, proximal intracellular regions of human MPL (NM_005373.3) fused with partial intracellular domains from human IL2RB (NM_000878.5) using the linkages as shown in FIG. 17. Certain of these chimeric receptor sequences were also inserted into a gamma retroviral vector backbone also encoding EGFP or firefly luciferase. Analogous vectors encoding unmodified MPL (NM_005373.3) were used for comparison. […]
(§3) In vitro cell culture experiments with human NK cells expressing MPL-IL2RB: Approximately 2-4 days after transduction, NK cells were placed in culture with varied concentrations of eltrombopag (Selleckchem, TX, USA) or romiplostim (Amgen, CA, USA); where concentrations are not indicated, 0.33 ug/mL eltrombopag or 1.5 ng/mL romiplostim were used. […] Numbers of GFP^+ cells were quantitated after 4-6 days (or indicated durations) using a BD Fortessa flow cytometer (BD Biosciences, NJ, USA) and compared with initial numbers to determine the fold expansion.

For another data set, the system named is K562 target cells. Briefly: Degranulation and cytokine production of NK cells expressing MPL-IL2RB or MPL with K562 targets. The data set is classed as cell-based, human. As to conditions: for degranulation of cytotoxic granules in response to K562 target cells: 4-day exposure to eltrombopag or romiplostim; for production of IFN-gamma and TNF: culture with eltrombopag or romiplostim and exposure to K562 targets. On the procedure: To examine degranulation, cells were washed after two hours and stained with anti-CD107a (H4A3) (BioLegend). To assay cytokine production, GolgiPlug and GolgiStop (BD Biosciences) were added at manufacturer's recommended concentrations within the first hour of co-culture with K562. After 4 hours, cells were washed and stained for cell surface markers, then stained intracellularly with mAb recognizing TNF-α (Mab 11) and IFN-γ (B27) (BD Biosciences).
as §1

Data set [5] concerns primary human NK cells. The experiment in a line: Time course of survival/proliferation of NK cells expressing MPL-IL2RB (retroviral). The class given is cell-based. As to conditions: varied concentrations of eltrombopag, romiplostim or thrombopoietin; retroviral vectors.
Source text: as §2, §3

In the case of “recombinant human thrombopoietin (rhTPO) (from UniProt P40225 22-353) (ligand)”, in data set [1], the Bcl-2 RMFI in c-MPL+ NK-92 cells with TPO was 64.5 RMFI; the Bcl-xL RMFI in c-MPL+ NK-92 cells with TPO stood at 4.52 RMFI; the CD107a degranulation of GFP+ MPL+ primary NK cells against K562, TPO plus 25 U/ml IL-2 amounted to 83%; the GFP fold-expansion of c-MPL transduced primary T cells, TPO alone, day 6 came out at 5.96 fold. Moreover, in data set [1], the average percentage of GFP+ MPL+ cells among recovered human cells in blood and spleen of TPO-treated NSG mice (about 10% injected) is 15%; the average percentage of GFP+ MPL+ cells among recovered human cells in liver and lung of TPO-treated NSG mice (about 10% injected) was determined as 20%; the expansion of c-MPL+ activated T cells, TPO plus LD IL-2, day 6 lay in the range of 6 to 11.4 fold; the fold change of GFP+ c-MPL+ primary NK cells, TPO plus 10 U/ml IL-2, day 6 turned out to be 24.3 fold. In data set [1], the fold change of GFP+ c-MPL+ primary NK cells, TPO plus 25 U/ml IL-2, day 6 was 34.1 fold; the fold expansion of c-MPL+ NK-92 cells with TPO alone, day 8 is 7 fold; the fold expansion of c-MPL+ NK-92 cells, TPO plus 1 U/ml IL-2, day 8 turned out to be 23.2 fold; the mean percentage of dead Raji cells, c-MPL+ NK-92 cells exposed to TPO plus LD IL-2, E:T 1:1 is 84%. Besides, in data set [1], the mean percentage of dead Raji cells, c-MPL+ NK-92 cells exposed to TPO plus LD IL-2, E:T 10:1 turned out to be 85%; the pS6 expression (RMFI) in c-MPL+ NK-92 cells, TPO plus LD IL-2 was found to be 11.8 RMFI; the percentage of GFP+ MPL+ cells in parallel in vitro cultures of the mixed cells with only TPO came to 31%.

Take romiplostim: the “phosphorylated ribosomal protein S6 responses (mTOR activation)” value in data set [2] (NK cells expressing either MPL-IL2RB or MPL) is “induced”. Moreover, the “phosphorylated STAT5” value in data set [2] (eltrombopag 0.33 μg/ml or romiplostim 1.5 ng/mL, compared with 5 U/mL IL-2) is given as “shorter dilution pSTAT5 response”. In data set [3], the “proliferation of c-MPL transduced NK cells” value was “induce proliferation”.

B1: MPL: unmodified human MPL (NM_005373.3), SEQ ID NO: 1, expressed in NK cells for comparison (protein, listed as Homo sapiens)
chain: MPSWALFMVTSCLLLAPQNLAQVSSQDVSLLASDSEPLKCFSRTFEDLTCFWDEEEAAPSGTYQLLYAYPREKPRACPLSSQSMPHFGTRYVCQFPDQEEVRLFFPLHLWVKNVFLNQTRTQRVLFVDSVGLPAPPSIIKAMGGSQPGELQISWEEPAPEISDFLRYELRYGPRDPKNSTGPTVIQLIATETCCPALQRPHSASALDQSPCAQPTMPWQDGPKQTSPSREASALTAEGGSCLISGLQPGNSYWLQLRSEPDGISLGGSWGSWSLPVTVDLPGDAVALGLQCFTLDLKNVTCQWQQQDHASSQGFFYHSRARCCPRDRYPIWENCEEEEKTNPGLQTPQFSRCHFKSRNDSIIHILVEVTTAPGTVHSYLGSPFWIHQAVRLPTPNLHWREISSGHLELEWQHPSSWAAQETCYQLRYTGEGHQDWKVLEPPLGARGGTLELRPRSRYRLQLRARLNGPTYQGPWSSWSDPTRVETATETAWISLVTALHLVLGLSAVLGLLLLRWQFPAHYRRLRHALWPSLPDLHRVLGQYLRDTAALSPPKATVSDTCEEVEPSLLEILPKSSERTPLPLCSSQAQMDYRRLQPSCLGTMPLSVCPPMAESGSCCTTHIANHSYLPLSYWQQP
As to B1, the “proliferation in the presence of eltrombopag at high IL-2 concentrations compared with IL-2 alone” value with Human NK cells was “deficit in proliferation”. Further, the “NK cell numbers in presence of eltrombopag or romiplostim” value in the data set on primary human NK cells [4] is on record as “greater cell numbers”. In the data set with K562 target cells, the “degranulation of cytotoxic granules in response to K562 target cells” value is given as “augmented degranulation”; the “production of IFN-gamma and TNF” value is “augmented production”.

B2: MPL-IL2RB: chimeric receptor, SEQ ID NO: 8 (amino acids 1-582, c-MPL; amino acids 583-801, IL2RB) (protein)
chain: MPSWALFMVTSCLLLAPQNLAQVSSQDVSLLASDSEPLKCFSRTFEDLTCFWDEEEAAPSGTYQLLYAYPREKPRACPLSSQSMPHFGTRYVCQFPDQEEVRLFFPLHLWVKNVFLNQTRTQRVLFVDSVGLPAPPSIIKAMGGSQPGELQISWEEPAPEISDFLRYELRYGPRDPKNSTGPTVIQLIATETCCPALQRPHSASALDQSPCAQPTMPWQDGPKQTSPSREASALTAEGGSCLISGLQPGNSYWLQLRSEPDGISLGGSWGSWSLPVTVDLPGDAVALGLQCFTLDLKNVTCQWQQQDHASSQGFFYHSRARCCPRDRYPIWENCEEEEKTNPGLQTPQFSRCHFKSRNDSIIHILVEVTTAPGTVHSYLGSPFWIHQAVRLPTPNLHWREISSGHLELEWQHPSSWAAQETCYQLRYTGEGHQDWKVLEPPLGARGGTLELRPRSRYRLQLRARLNGPTYQGPWSSWSDPTRVETATETAWISLVTALHLVLGLSAVLGLLLLRWQFPAHYRRLRHALWPSLPDLHRVLGQYLRDTAALSPPKATVSDTCEEVEPSLLEILPKSSERTPLPLVTQLLLQQDKVPEPASLSSNHSLTSCFTNQGYFFFHLPDALEIEACQVYFTYDPYSEEDPDEGVAGAPTGSSPQPLQPLSGEDDAYCTFPSRDDLLLFSPSLLGGPSPPSTAPGGSGAGEERMPPSLQERVPRDWDPQPLGPPTPGVPDLVDFQPPPELVLREAGEEVPDAGPREGVSFPWSRPPGQGEFRALNARLPLNTDAYLSLQELQGQDPTHLV
Consider B2, for which the “intracellular signals (pSTAT5, pS6) induced via receptor” value in data set [2] (compared with MPL) is “comparable to those triggered by MPL”. Moreover, in the data set with Human NK cells, the “proliferation in the presence of eltrombopag at high IL-2 concentrations compared with IL-2 alone” value is on record as “comparable numbers”. In addition, the “NK cell numbers after 6 days” value in the data set on Human NK cells (low concentrations of IL-2, with eltrombopag) is on record as “greater numbers”. The “fold change in cell numbers” value in the data set on primary human NK cells [5] is “greater fold change in cell numbers”. Moreover, in the data set with primary human NK cells [4], the “NK cell numbers in presence of eltrombopag or romiplostim” value is “greater cell numbers than MPL-expressing NK cells”. In addition, in the data set with K562 target cells, the “degranulation of cytotoxic granules in response to K562 target cells” value is on record as “augmented degranulation”; the “production of IFN-gamma and TNF” value was “augmented production”.
